From patent publication US20230159663A1 (VIRTUOSO BINCO, published 2023)
One block for each binder: values may come before it.

Assays:
[1] = biological target: T1, CD47 expressed on human red blood cells (human, UniProt Q08722 19-323); assay: flow cytometry on human red blood cells
T1 construct: whole, on cells; also called RBCs; RBC
Method: The RBC binding assay was performed by spinning down fresh human whole blood at 200 g for 10 minutes. Collected RBCs were washed twice with PBS and counted using flow cytometry. 1×10⁶ cells were dispensed into each well of a 96 well culture plate. Serially diluted anti-CD47 antibodies were added and incubated for 1 hour at 4° C. Cells were washed with FACS buffer (PBS+2% FBS) twice. […] Cells were washed twice and resuspended in 200 μl of FACS buffer and analyzed by flow cytometry.

[2] = biological target: T2, human CD47 extracellular domain with C-terminal 6×His tag (human, UniProt Q08722 19-139, limits assumed); assay: ELISA on human CD47; EC50 given as a bin, limits from the table's legend; lower limit of bin A
T2 construct: extracellular domain; Made in Expi293F cells (section 5.4.1); also called recombinant CD47; huCD47
Method: (§1) A 96-well plate was coated overnight at 4° C. with 1 μg/ml recombinant CD47. After washing 3 times, the plate was blocked with 300 μl 1% BSA in PBST at 37° C. for 1 hour. Serially diluted antibodies were added and incubated at 37° C. for 1 hour. […] The plate was washed again 4 times with PBST, incubated with 3,3′,5,5′-tetramethylbenzidine (TMB) substrate for 15 min at room temperature, terminated with 1N HCl, and then read at 450 nm.

[3] = biological target: T2, human CD47 extracellular domain with …; assay: ELISA on human CD47; EC50 given as a bin, limits from the table's legend; upper limit of bin A
Method: as §1

[4] = biological target: T2, human CD47 extracellular domain with …; assay: ELISA on human CD47; EC50 given as a bin, limits from the table's legend; lower limit of bin B
Method: as §1

[5] = biological target: T2, human CD47 extracellular domain with …; assay: ELISA on human CD47; EC50 given as a bin, limits from the table's legend; upper limit of bin B
Method: as §1

[6] = biological target: T2, human CD47 extracellular domain with …; assay: ELISA on human CD47; EC50 given as a bin, limits from the table's legend; lower limit of bin C
Method: as §1

[7] = biological target: T2, human CD47 extracellular domain with …; assay: ELISA on human CD47; EC50 given as a bin, limits from the table's legend; upper limit of bin C
Method: as §1

[8] = biological target: T2, human CD47 extracellular domain with …; assay: ELISA on human CD47
[9] = biological target: T3, human EpCAM extracellular domain with C-terminal His tag (Novoprotein #C339) (human, UniProt P16422 24-265); assay: assay not given; ranks EpCAM affinity among Bi-1, Bi-2 and Bi-8
T3 construct: extracellular domain; Bought protein
T3 sequence (looked up): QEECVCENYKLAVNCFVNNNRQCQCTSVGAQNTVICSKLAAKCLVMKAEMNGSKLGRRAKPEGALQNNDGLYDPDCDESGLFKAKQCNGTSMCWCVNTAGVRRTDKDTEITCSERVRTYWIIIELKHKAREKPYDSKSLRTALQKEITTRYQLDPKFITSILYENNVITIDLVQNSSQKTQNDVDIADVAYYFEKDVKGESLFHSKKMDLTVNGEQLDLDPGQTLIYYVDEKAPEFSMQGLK

fold higher concentration required for RBC binding, against CD47 BMK-1 [1]: > 20 fold
EC50 [2]: ≥ 10 pM
EC50 [3]: ≤ 150 pM
B1: VIR47 hIgG1 (antibody)
heavy: not shown
light: SYEMTQPPSVSVSPGQTARITCSGDALPKKYAYWYQQKSGQAPVLVIYEDNKRPSGIPERFSGSSSGTMATLTISGAQVEDEADYYCYSTDISGNHWVFGGGTELTVLGQPKAAPSVTLFPPSSEELQANKATLVCLISDFYPGAVTVAWKADSSPVKAGVETTTPSKQSNNKYAASSYLSLTPEQWKSHRSYSCQVTHEGSTVEKTVAPTECS
notes: also called VIR47 IgG1; IgG1 form of VIR47

EC50 [4]: ≥ 150 pM
EC50 [5]: ≤ 400 pM
B2: VIR47 IgG1 HC G99A (antibody, V domains shown)
VH: EVQLLESGGGLVQPGGSLRLSCAASGFTFSNFAMSWVRQAPGKGLEWVSTISASGGRTFYADSVKGRITISRDNSKNTLFLQMNGLRAEDTAVYYCAKEGSFAEGVDPWGQGTLVTVSS
VL: SYEMTQPPSVSVSPGQTARITCSGDALPKKYAYWYQQKSGQAPVLVIYEDNKRPSGIPERFSGSSSGTMATLTISGAQVEDEADYYCYSTDISGNHWVFGGGTELTVLG
notes: Alanine-scan variant of the IgG1 form of VIR47; position in Kabat-style numbering, not the linear count on the entry

EC50 [6]: ≥ 400 pM
EC50 [7]: ≤ 5000 pM
B3: VIR47 IgG1 HC F98A (antibody, V domains shown)
VH: EVQLLESGGGLVQPGGSLRLSCAASGFTFSNFAMSWVRQAPGKGLEWVSTISASGGRTFYADSVKGRITISRDNSKNTLFLQMNGLRAEDTAVYYCAKEGSAGEGVDPWGQGTLVTVSS
VL: SYEMTQPPSVSVSPGQTARITCSGDALPKKYAYWYQQKSGQAPVLVIYEDNKRPSGIPERFSGSSSGTMATLTISGAQVEDEADYYCYSTDISGNHWVFGGGTELTVLG
notes: as for B2

EC50 [4]: ≥ 150 pM
EC50 [5]: ≤ 400 pM
B4: VIR47 IgG1 HC G100aA (antibody, V domains shown)
VH: EVQLLESGGGLVQPGGSLRLSCAASGFTFSNFAMSWVRQAPGKGLEWVSTISASGGRTFYADSVKGRITISRDNSKNTLFLQMNGLRAEDTAVYYCAKEGSFGEAVDPWGQGTLVTVSS
VL: SYEMTQPPSVSVSPGQTARITCSGDALPKKYAYWYQQKSGQAPVLVIYEDNKRPSGIPERFSGSSSGTMATLTISGAQVEDEADYYCYSTDISGNHWVFGGGTELTVLG
notes: as for B2

binding result [8]: binds
binding result [9]: binds
B5: Bi-8 (3C-KIH EpCAM × CD47 scFv bispecific antibody) (bispecific antibody)
chain: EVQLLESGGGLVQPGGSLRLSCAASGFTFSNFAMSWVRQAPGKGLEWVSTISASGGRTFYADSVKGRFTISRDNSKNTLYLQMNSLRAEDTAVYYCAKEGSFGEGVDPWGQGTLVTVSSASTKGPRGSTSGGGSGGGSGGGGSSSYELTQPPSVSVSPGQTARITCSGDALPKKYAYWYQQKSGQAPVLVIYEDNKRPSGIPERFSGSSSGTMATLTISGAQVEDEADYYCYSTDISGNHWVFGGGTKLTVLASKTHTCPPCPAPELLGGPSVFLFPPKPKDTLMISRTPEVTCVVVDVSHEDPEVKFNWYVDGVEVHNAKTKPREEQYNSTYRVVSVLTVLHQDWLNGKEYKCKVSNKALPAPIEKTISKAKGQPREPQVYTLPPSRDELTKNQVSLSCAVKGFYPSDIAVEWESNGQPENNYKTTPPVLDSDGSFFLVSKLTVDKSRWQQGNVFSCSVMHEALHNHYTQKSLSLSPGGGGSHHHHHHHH
heavy: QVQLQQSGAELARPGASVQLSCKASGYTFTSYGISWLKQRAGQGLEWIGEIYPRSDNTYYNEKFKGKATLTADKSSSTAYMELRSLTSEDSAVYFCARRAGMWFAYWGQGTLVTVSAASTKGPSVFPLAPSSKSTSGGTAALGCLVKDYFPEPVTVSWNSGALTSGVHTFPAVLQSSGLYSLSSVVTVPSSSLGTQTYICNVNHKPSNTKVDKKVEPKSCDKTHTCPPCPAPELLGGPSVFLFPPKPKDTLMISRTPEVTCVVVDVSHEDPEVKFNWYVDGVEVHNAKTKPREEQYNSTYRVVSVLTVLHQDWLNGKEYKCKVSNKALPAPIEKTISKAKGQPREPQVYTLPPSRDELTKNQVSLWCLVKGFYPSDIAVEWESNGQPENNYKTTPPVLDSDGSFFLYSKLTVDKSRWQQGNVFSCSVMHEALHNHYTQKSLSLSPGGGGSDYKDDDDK
VL: EIVLTQSPAITAASLGQKVTITCSASSSVSDMHWYQQKSGTSPKPWIYEISKLASGVPTRFSGSGSGTSYSLTISSMEAEDAAIYYCQHWSYPLMTFGGGTKLEIK
notes: Three-chain knob-into-hole format
